Experimental data reported in paper PMC2674928, “The SARS-Unique Domain (SUD) of SARS Coronavirus Contains Two Macrodomains That Bind G-Quadruplexes”.

Experiments:
[1] = target: SUD_(core), the core of the SARS-unique domain (Nsp3 residues 389-652) of SARS coronavirus (SARS coronavirus (strain TOR2)); experiment: crystal structure
SUD-M = SUD-M (SARS coronavirus strain TOR2, UniProt P0C6U8 1343-1470); experiment: ZIGE (gel shift); conditions: protein: recombinant; tags: N-terminal His-tag, factor Xa site linker; G4 (oligo(G) known to form quadruplexes)
SUD-N = SUD-N (SARS coronavirus strain TOR2, UniProt P0C6U8 1207-1342); experiment: ZIGE (gel shift); conditions: protein: recombinant; tags: N-terminal His-tag, factor Xa site linker; G4 (oligo(G) known to form quadruplexes)
SUDcore (SUDc5b) = SUDcore (SUDc5b) (SARS coronavirus strain TOR2, UniProt P0C6U8 1207-1470); experiment: ZIGE (gel shift); 100 mM KCl; conditions: protein: recombinant; tags: N-terminal His-tag, factor Xa site linker; chain copies: 2; G4
full-length SUD (Nsp3c) = full-length SUD (Nsp3c) (SARS coronavirus strain TOR2, UniProt P0C6U8 1207-1544); experiment: ZIGE (gel shift); 100 mM KCl; conditions: protein: recombinant; tags: N-terminal His-tag, factor Xa site linker; G4

Row | Molecule | binding result (SUDcore (SUDc5b)) | binding result (full-length SUD (Nsp3c)) | also measured
1 | SUD_(core), the core of the SARS-unique domain (Nsp3 residues 389-652) of SARS coronavirus (domain or fragment) |  |  | stoichiometry N [1]: 2
2 | GGGGGGGGGG (structured_DNA) [(dG)10] |  |  | binding result (SUD-M): binds; binding result (SUD-N): binds
3 | UGGGGGGAGGGAGGGAGGGA (structured_RNA) [elastin 3'-NTR RNA G4] | binds | binds | 
4 | UGGGGU (structured_RNA) [UG4U] | binds |  | 
5 | GGGCGCGGGAGGAATTGGGCGGG (structured_DNA) [Bcl-2 promoter G4] | binds | binds | 
